Test results reported in publication PMC9491713.

Target: cSFB-RBPJ protein purified from 293F cells, Q06330
Test: BLI
Conditions: remark: other sources report otherwise

Kd: 0.047 µM
B1: FLAG-FBXO42 protein purified from 293F cells, Q6P3S6 1-717 (natural protein)
chain: MASSSDSEDDSFMAVDQEETVLEGTMDQDEEPHPVLEAEETRHNRSMSELPEEVLEYILSFLSPYQEHKTAALVCKQWYRLIKGVAHQCYHGFMKAVQEGNIQWESRTYPYPGTPITQRFSHSACYYDANQSMYVFGGCTQSSCNAAFNDLWRLDLNSKEWIRPLASGSYPSPKAGATLVVYKDLLVLFGGWTRPSPYPLHQPERFFDEIHTYSPSKNWWNCIVTTHGPPPMAGHSSCVIDDKMIVFGGSLGSRQMSNDVWVLDLEQWAWSKPNISGPSPHPRGGQSQIVIDDATILILGGCGGPNALFKDAWLLHMHSGPWAWQPLKVENEEHGAPELWCHPACRVGQCVVVFSQAPSGRAPLSPSLNSRPSPISATPPALVPETREYRSQSPVRSMDEAPCVNGRWGTLRPRAQRQTPSGSREGSLSPARGDGSPILNGGSLSPGTAAVGGSSLDSPVQAISPSTPSAPEGYDLKIGLSLAPRRGSLPDQKDLRLGSIDLNWDLKPASSSNPMDGMDNRTVGGSMRHPPEQTNGVHTPPHVASALAGAVSPGALRRSLEAIKAMSSKGPSASAALSPPLGSSPGSPGSQSLSSGETVPIPRPGPAQGDGHSLPPIARRLGHHPPQSLNVGKPLYQSMNCKPMQMYVLDIKDTKEKGRVKWKVFNSSSVVGPPETSLHTVVQGRGELIIFGGLMDKKQNVKYYPKTNALYFVRAKR
